Measurements reported in paper PMC10778174.

Biological target: BG505-SOSIP trimer Env (subtype A) (HIV-1 (subtype A, BG505))
Assay: SEC + other: negative-stain EM; gel-filtration and negative-stain EM of the purified BG505 SOSIP; conditions not given

BG505-SOSIP trimer Env (subtype A) (complex)
stoichiometry N: 3
